The Immune Epitope Database (IEDB)

Columns and labels:
HLA-A*02:01 [1] = experiment: IEDB peptide-MHC binding, purified MHC/competitive/radioactivity; ≥ and ≤ were set here for values at or beyond the usual limits of such assays
HLA-A*02:03 = experiment: as above
HLA-A*02:02 [2] = experiment: as above
HLA-A*02:06 [3] = experiment: IEDB peptide-MHC binding, cellular MHC/competitive/fluorescence; ≥ and ≤ were set here for values at or beyond the usual limits of such assays
HLA-A*68:02 [4] = experiment: as above
HLA-A*02:06 [5] = experiment: IEDB peptide-MHC binding, purified MHC/competitive/radioactivity; ≥ and ≤ were set here for values at or beyond the usual limits of such assays
HLA-A*68:02 [6] = experiment: as above
HLA-A*02:02 [7] = experiment: IEDB peptide-MHC binding, cellular MHC/competitive/fluorescence; ≥ and ≤ were set here for values at or beyond the usual limits of such assays
HLA-A*02:01 [8] = experiment: as above; conditions: source organism: Vaccinia virus WR
[9] = source organism: Vaccinia virus WR
[10] = source organism: Influenza A virus

In the case of NLRCHSAHV, the IC50 (HLA-A*02:01 [1]; [9]) is reported as 3.06 µM, the IC50 (HLA-A*02:03; [9]) is reported as 0.011 µM and the IC50 (HLA-A*02:02 [2]; [9]) is reported as 0.384 µM. The IC50 (HLA-A*02:06 [3]; [9]) was 8.03 µM and the IC50 (HLA-A*68:02 [4]; [9]) was 8.2 µM.
LLENKSLTIL gave an IC50 (HLA-A*02:01 [1]; [9]) of 1.15 µM, an IC50 (HLA-A*02:03; [9]) of 0.541 µM and an IC50 (HLA-A*02:02 [2]; [9]) of 0.185 µM. For the same sequence, the IC50 (HLA-A*02:06 [3]; [9]) was 7.43 µM and the IC50 (HLA-A*68:02 [4]; [9]) was 21.3 µM.
Sequence IVCSKTVKNV has an IC50 (HLA-A*02:06 [5]; [9]) of 2.76 µM, an IC50 (HLA-A*68:02 [6]; [9]) of 1.73 µM and an IC50 (HLA-A*02:01 [1]; [9]) of 1.42 µM. It also gave an IC50 (HLA-A*02:03; [9]) of 0.503 µM and an IC50 (HLA-A*02:02 [7]; [9]) of 10.8 µM.
HIGHHYIWI gave an IC50 (HLA-A*02:01 [1]; [9]) of 2.99 µM, an IC50 (HLA-A*02:03; [9]) of 0.899 µM and an IC50 (HLA-A*02:02 [2]; [9]) of 2.56 µM. The IC50 (HLA-A*02:06 [3]; [9]) was 25.3 µM and the IC50 (HLA-A*68:02 [4]; [9]) was 19.9 µM.
Sequence RAMAWTVVNSI has an IC50 (HLA-A*02:01 [1]; [10]) of 0.624 µM, an IC50 (HLA-A*02:03; [10]) of 0.066 µM and an IC50 (HLA-A*02:02 [2]; [10]) of 0.074 µM. The IC50 (HLA-A*02:06 [3]; [10]) was 8.06 µM and the IC50 (HLA-A*68:02 [4]; [10]) was 7.51 µM.
With LITNTKSDNI the IC50 (HLA-A*02:03; [9]) was 3.08 µM, the IC50 (HLA-A*02:02 [2]; [9]) was 2.25 µM and the IC50 (HLA-A*02:06 [3]; [9]) was 18.8 µM. For the same sequence, the IC50 (HLA-A*68:02 [4]; [9]) was 20.7 µM and the IC50 (HLA-A*02:01 [8]) was ≥ 70 µM.
KQNKFGDSPL was tested, and the IC50 (HLA-A*02:03; [9]) was 0.216 µM, the IC50 (HLA-A*02:02 [2]; [9]) was 0.09 µM and the IC50 (HLA-A*02:06 [3]; [9]) was 5.08 µM. It also gave an IC50 (HLA-A*68:02 [4]; [9]) of 31.6 µM and an IC50 (HLA-A*02:01 [8]) of 5.55 µM.
Work on AIRAGYSIV yielded an IC50 (HLA-A*02:03; [9]) of 0.00021 µM, an IC50 (HLA-A*02:02 [2]; [9]) of 1.2 µM and an IC50 (HLA-A*02:06 [3]; [9]) of 8.06 µM. It also gave an IC50 (HLA-A*68:02 [4]; [9]) of 15.4 µM and an IC50 (HLA-A*02:01 [8]) of 5.01 µM.
With LATLNTLIT the IC50 (HLA-A*02:03; [9]) was 1.55 µM, the IC50 (HLA-A*02:02 [2]; [9]) was 1.16 µM and the IC50 (HLA-A*02:06 [3]; [9]) was 14.2 µM. It also gave an IC50 (HLA-A*68:02 [4]; [9]) of 13.9 µM and an IC50 (HLA-A*02:01 [8]) of 10.6 µM.
LIKTLSPAHL gave an IC50 (HLA-A*02:03; [9]) of 0.356 µM, an IC50 (HLA-A*02:02 [2]; [9]) of 1.85 µM and an IC50 (HLA-A*02:06 [3]; [9]) of 10.2 µM. For the same sequence, the IC50 (HLA-A*68:02 [4]; [9]) was 33.3 µM and the IC50 (HLA-A*02:01 [8]) was 11.6 µM.
Sequence YIENTNQGNI has an IC50 (HLA-A*02:03; [9]) of 0.582 µM, an IC50 (HLA-A*02:02 [2]; [9]) of 1.22 µM and an IC50 (HLA-A*02:06 [3]; [9]) of 6.2 µM. The IC50 (HLA-A*68:02 [4]; [9]) was 42 µM and the IC50 (HLA-A*02:01 [8]) was 34.5 µM.
For LLKETIQKDI, the IC50 (HLA-A*02:03; [9]) was 0.782 µM, the IC50 (HLA-A*02:02 [2]; [9]) was 3.06 µM and the IC50 (HLA-A*02:06 [3]; [9]) was 23.4 µM. The IC50 (HLA-A*68:02 [4]; [9]) was 13.2 µM and the IC50 (HLA-A*02:01 [8]) was 9.03 µM.
Sequence NLVQYRILPM has an IC50 (HLA-A*02:01 [1]; [9]) of 1.44 µM, an IC50 (HLA-A*02:03; [9]) of 1.33 µM and an IC50 (HLA-A*02:02 [2]; [9]) of 3.99 µM. For the same sequence, the IC50 (HLA-A*02:06 [3]; [9]) was 24.5 µM and the IC50 (HLA-A*68:02 [4]; [9]) was ≥ 70 µM.
Sequence MAFILGIIIT has an IC50 (HLA-A*02:01 [1]; [9]) of 0.663 µM, an IC50 (HLA-A*02:03; [9]) of 2.83 µM and an IC50 (HLA-A*02:02 [2]; [9]) of 4.68 µM. It also gave an IC50 (HLA-A*02:06 [3]; [9]) of 10.3 µM and an IC50 (HLA-A*68:02 [4]; [9]) of 5.16 µM.
Sequence YLVQQESSFV has an IC50 (HLA-A*02:06 [5]; source organism: SARS-CoV1) of 0.386 µM, an IC50 (HLA-A*68:02 [6]; source organism: SARS-CoV1) of 3.41 µM and an IC50 (HLA-A*02:01 [1]; source organism: SARS-CoV1) of 0.076 µM. The IC50 (HLA-A*02:03; source organism: SARS-CoV1) was 0.017 µM and the IC50 (HLA-A*02:02 [7]; source organism: SARS-CoV1) was 12.7 µM.
ALKNSQAELT gave an IC50 (HLA-A*02:03; [9]) of 0.98 µM, an IC50 (HLA-A*02:02 [2]; [9]) of 2.12 µM and an IC50 (HLA-A*02:06 [3]; [9]) of 27.2 µM. It also gave an IC50 (HLA-A*68:02 [4]; [9]) of 47.4 µM and an IC50 (HLA-A*02:01 [8]) of 51 µM.
TISWMMKLGI gave an IC50 (HLA-A*02:06 [5]; [9]) of 2.78 µM, an IC50 (HLA-A*68:02 [6]; [9]) of 1.48 µM and an IC50 (HLA-A*02:01 [1]; [9]) of 4.57 µM. For the same sequence, the IC50 (HLA-A*02:03; [9]) was 0.972 µM and the IC50 (HLA-A*02:02 [7]; [9]) was 7.84 µM.
